From article PMC7565527, “Cryo-EM Structure of Heterologous Protein Complex Loaded Thermotoga Maritima Encapsulin Capsid” (Biomolecules, 2020) come the findings set out here.

This data set concerns the molecule itself. Description: cryo-EM structure; Encap/IDM complex coexpressed in insect cells, purified by Ni-NTA and Superdex 200; icosahedral reconstruction of the encapsulin shell at 2.87 Å, C1 reconstruction at 4.29 Å.

B1: Thermotoga maritima encapsulin capsid protein, C-terminus His-tagged (natural protein)
chain: MEFLKRSFAPLTEKQWQEIDNRAREIFKTQLYGRKFVDVEGPYGWEYAAHPLGEVEVLSDENEVVKWGLRKSLPLIELRATFTLDLWELDNLERGKPNVDLSSLEETVRKVAEFEDEVIFRGCEKSGVKGLLSFEERKIECGSTPKDLLEAIVRALSIFSKDGIEGPYTLVINTDRWINFLKEEAGHYPLEKRVEECLRGGKIITTPRIEDALVVSERGGDFKLILGQDLSIGYEDREKDAVRLFITETFTFQVVNPEALILLKF
notes: T. maritima encapsulin capsid protein; gene amplified from pET14-GFP30-Encap (Addgene #86406); model built from PDB 3DKT; Assembles into an icosahedral shell with 12 fivefold pores; its symmetry expansion ('the other expanded 59 sets') implies 60; also called encapsulin shell; source: insect cells (baculovirus, pFastBac1), coexpressed with cargo, purified (Ni-NTA, Superdex 200); not shown: His …
Turning to B1, the binding result was “binds”.
